Consider 6 molecules from PMC11209382, “Exploring the Potentiality of a Plant Platform for Monoclonal Antibody Production in Veterinary Medicine” (Vaccines, 2024).

As usually defined, the stoichiometry N is a count of units in the complex or per binding partner. For orientation: IC50 means the concentration that inhibits the measured activity by half. Read a low IC50 as greater potency in that assay. As usually defined, the koff is the first-order rate constant of dissociation. As a reminder, the Kd is the concentration at which binding is half-saturated.

Assay [1] addresses recombinant canine Interleukin 31 produced in HEK cells (canine). Nature of the assay: dynamic light scattering; hydrodynamic radius of cIL-31 at pH 7.5; monomer to dimer.
Assay [2] concerns the target recombinant canine Interleukin 31 produced in Nicotiana benthamiana (canine). The description is as above.
Assay [3] shares this target. Put plainly: SEC; elution volume on a calibrated Superdex 200 column; monomer to dimer.
The target of assay [4] is canine neonatal Fc receptor, C-terminus biotinylated, attached to Streptavidin (cFcRn-SmBiT) (canine). Nature of the assay: other; competition with IgG-LgBiT tracer.
For assay [5], the target named is T1, canine neonatal Fc receptor, C-terminus biotinylated, attached to Streptavidin (cFcRn-SmBiT) (canine, biotin at the C-terminus).
T1 chain 1: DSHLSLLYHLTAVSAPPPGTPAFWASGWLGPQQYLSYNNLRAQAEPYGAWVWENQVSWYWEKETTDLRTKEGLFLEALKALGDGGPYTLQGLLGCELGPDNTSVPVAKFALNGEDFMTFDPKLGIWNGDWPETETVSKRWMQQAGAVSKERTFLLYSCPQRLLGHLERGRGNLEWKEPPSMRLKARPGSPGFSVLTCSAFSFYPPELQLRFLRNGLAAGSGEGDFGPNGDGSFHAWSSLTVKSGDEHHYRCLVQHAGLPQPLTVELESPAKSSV
T1 chain 2: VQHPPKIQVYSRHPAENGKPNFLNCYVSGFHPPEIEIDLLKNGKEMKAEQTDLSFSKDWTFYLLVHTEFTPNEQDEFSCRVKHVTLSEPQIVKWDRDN
Put plainly: competition with IgG-LgBiT tracer.

Assay [6] concerns the target T2, recombinant canine Interleukin 31 produced in HEK cells (canine).
T2 chain: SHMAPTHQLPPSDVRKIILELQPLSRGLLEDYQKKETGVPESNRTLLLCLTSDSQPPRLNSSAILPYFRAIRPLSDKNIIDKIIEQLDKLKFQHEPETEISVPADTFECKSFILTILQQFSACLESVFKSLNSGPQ
Put plainly: BLI.

Assay [7] has as its target T3, recombinant canine Interleukin 31 produced in HEK cells (canine).
T3 construct: canine Interleukin 31 (IL-31); also called rcIL-31 (HEK); cIL-31 (HEK); source: produced in HEK cells
T3 chain: T2 chain
Nature of the assay: BLI; Lokivetmab or M1 (5 nM) immobilised on ProA biosensors to 1 nm; rcIL-31 (HEK) 300 to 80 nM in solution; 25 °C, PBS pH 7.4, 0.1% BSA, 0.02% Tween; association 360 s, dissociation 600 s; global fit, KD from kd/ka. The following applies: both partners purified.

Regarding “recombinant canine Interleukin 31 produced in HEK cells (ligand)”, in assay [1], the stoichiometry N is 2. “recombinant canine Interleukin 31 produced in Nicotiana benthamiana (ligand)”: the stoichiometry N in assay [2] and in assay [3] was 2 each time.

Take Lokivetmab: in assay [4], the IC50 was 68.7 µg/mL.

B1: plant-made anti-cIL-31 monoclonal antibody M1 produced in wild-type N. benthamiana (antibody)
chain 1: EVQLVESGGDLVKPGGSLRLSCVASGFTFSNYGMSWVRQAPGKGLQWVATISYGGSYTYYPDNIKGRFTISRDNAKNTLYLQMNSLRAEDTAMYYCVRGYGYDTMDYWGQGTLVTVSS
chain 2: EIVMTQSPASLSLSQEEKVTITCKASQSVSFAGTGLMHWYQQKPGQAPKLLIYRASNLEAGVPSRFSGSGSGTDFSFTISSLEPEDVAVYYCQQSREYPWTFGQGTKLEIK
On to B1, for which the IC50 in assay [5] came to 17.9 µg/mL.

B2: plant-made anti-cIL-31 monoclonal antibody M1 produced in FucT/XylT mutant (ΔXF) N. benthamiana (antibody, V domains shown)
VH: B1 chain 1
VL: B1 chain 2
notes: CAN-34D03-VH-568-1); CAN 34D03-VL998-1); LC constant domain kappa (XP_035562095.1); Full IgG; N-glycans lack core α(1,3)-fucose and β(1,2)-xylose; also called M1 ΔXF; plant-made Lokivetmab biosimilar; source: ΔXF N. benthamiana, transient expression, purified (Protein A: Hi Screen Fibro PrismA)
B2: in assay [6], the dissociation rate constant (koff) came out at 0.00345 s⁻¹. The Kd in assay [7] stood at 28.5 nM. This molecule also showed an IC50 in assay [5] of 21.6 µg/mL.

B3: Lokivetmab (antibody, V domains shown)
VH: B1 chain 1
VL: B1 chain 2
notes: Caninized IgG; major N-glycoform GnGnF (79%); also called caninized monoclonal antibody targeting IL-31; commercial homolog of M1; source: produced in CHO cells; commercial product
On to B3, for which, in assay [6], the koff was determined as 0.00205 s⁻¹. Besides, the Kd in assay [7] amounted to 27.4 nM.
